Reference: US20250242021A1 (published 2025)

How the values were obtained:
[1] = target: T1, minor histocompatibility antigen (miHA) HA-1, 'H' epitope peptide on HLA-A*02:01 (human); assay: killing
T1 peptide: VLHDDLLEA

[2] = target: T2, minor histocompatibility antigen (miHA) HA-1, 'R' epitope (non-target allelic variant) peptide on HLA-A*02:01 (human); assay: killing
T2 peptide: VLRDDLLEA

[3] = target: T3, minor histocompatibility antigen (miHA) HA-1, 'H' epitope peptide on HLA-A*02:06 (human); assay: activation reporter or marker
T3 peptide: VLHDDLLEA

binding result [3]: recognises
B1: anti-HA-1 'H' epitope TCR (TCR, V domains shown)
Valpha: AQSVAQPEDQVNVAEGNPLTVKCTYSVSGNPYLFWYVQYPNRGLQFLLKYITGDNLVKGSYGFEAEFNKSQTSFHLKKPSALVSDSALYFCAVRAPTSGTYKYIFGTGTRLKVLA
Vbeta: DTGVSQDPRHKITKRGQNVTFRCDPISEHNRLYWYRQTLGQGPEFLTYFQNEAQLEKSRLLSDRFSAERPKGSFSTLEIQRTEQGDSAMYLCASSLVSGNEQFFGPGTRLTVL
binding result [1]: recognises | binding result [2]: no recognition
